Experimental data from patent publication US20250360083A1.

Target: CXCR4 receptor on J-Lat8.4, Jurkat E6 and U1 cells (human) (UniProt P61073)
Assay: cell-based or functional assay

For “cyclic peptide cyclo (D-Tyr-Orn-Arg-Nal-Gly-) (CycPep), conjugated to DSPE-PEG and displayed on CXCR4 targeted lipid nanoparticles (T-LNP)”, the viral DNA excision (excised band intensity on gel), J-Lat8.4 and Jurkat E6 against U1 was 4 fold and the viral excision was under 60%.
